Measurements reported in publication PMC5123862, “Characterization of human translesion DNA synthesis across a UV-induced DNA lesion” (eLife, 2016).

Assays:
[1] = target: T1, Cy5-labeled PCNA (human PCNA site-specifically labeled with Cy5 at amino acid residue 107) (human, UniProt P12004 1-261, Cy5 at amino acid residue 107); test: FRET or BRET; holoenzyme assembly: RFC (100 nM), Cy5-PCNA (100 nM) and forked Cy3-P/T DNA (100 nM, biotin/Neutravidin) pre-incubated with 1 mM ATP, titrated with unlabeled pol η; FRET between DNA and PCNA (I670/I570); one-site binding model; room temperature; ionic strength 200 mM; settings: both partners purified
[2] = target: T1, Cy5-labeled PCNA (human PCNA …); test: FRET or BRET; competitive inhibition: pre-assembled Cy3-Pol η•Cy5-PCNA complex (200 nM Cy3-Pol η, 20 nM Cy5-PCNA) titrated with unlabeled competitor (PCNA, (Ub)3-PCNA or pol η, 0-5 μM); dose-response model, Ki from IC50 by the Munson-Rodbard solution; room temperature; replication assay buffer, ionic strength 200 mM; settings: both partners purified

T1 sequence (P12004 whole entry N107C): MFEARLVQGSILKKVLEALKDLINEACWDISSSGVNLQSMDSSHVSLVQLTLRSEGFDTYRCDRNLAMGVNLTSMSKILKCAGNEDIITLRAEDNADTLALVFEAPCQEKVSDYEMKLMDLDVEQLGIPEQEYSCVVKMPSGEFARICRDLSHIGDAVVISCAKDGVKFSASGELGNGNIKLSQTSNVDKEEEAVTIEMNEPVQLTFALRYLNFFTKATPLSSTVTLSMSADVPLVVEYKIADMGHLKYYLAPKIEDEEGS

B1: Pol η (human DNA polymerase eta, full length, wild type, unlabeled) (enzyme, UniProt Q9Y253 1-713, looked up)
chain: MATGQDRVVALVDMDCFFVQVEQRQNPHLRNKPCAVVQYKSWKGGGIIAVSYEARAFGVTRSMWADDAKKLCPDLLLAQVRESRGKANLTKYREASVEVMEIMSRFAVIERASIDEAYVDLTSAVQERLQKLQGQPISADLLPSTYIEGLPQGPTTAEETVQKEGMRKQGLFQWLDSLQIDNLTSPDLQLTVGAVIVEEMRAAIERETGFQCSAGISHNKVLAKLACGLNKPNRQTLVSHGSVPQLFSQMPIRKIRSLGGKLGASVIEILGIEYMGELTQFTESQLQSHFGEKNGSWLYAMCRGIEHDPVKPRQLPKTIGCSKNFPGKTALATREQVQWWLLQLAQELEERLTKDRNDNDRVATQLVVSIRVQGDKRLSSLRRCCALTRYDAHKMSHDAFTVIKNCNTSGIQTEWSPPLTMLFLCATKFSASAPSSSTDITSFLSSDPSSLPKVPVTSSEAKTQGSGPAVTATKKATTSLESFFQKAAERQKVKEASLSSLTAPTQAPMSNSPSKPSLPFQTSQSTGTEPFFKQKSLLLKQKQLNNSSVSSPQQNPWSNCKALPNSLPTEYPGCVPVCEGVSKLEESSKATPAEMDLAHNSQSMHASSASKSVLEVTQKATPNPSLLAAEDQVPCEKCGSLVPVWDMPEHMDYHFALELQKSFLQPHSSNPQVVSAVSHQGKRNPKSPLACTNKRPRPEGMQTLESFFKPLTH
notes: human DNA polymerase eta (pol η), single subunit; N-terminal catalytic core residues 1-475, C-terminal portion residues 476-713; also called unlabeled pol η; source: recombinant, purified from the pET21A-hPol η expression vector (modified protocol of Li et al., 2013)
- KD for Cy5-PCNA loaded on forked Cy3-P/T DNA (pol η holoenzyme formation) [1]: 28 ± 5.38 nM
- Ki [2]: 112 ± 15.5 nM
